Data: patent US20230201364A1 (BRIGHT PEAK THERAPEUTICS, published 2023)

Experiments:
[1] = target: recombinant biotinylated PD1/CD279 protein (AcroBiosystems PD1-H82E4) (UniProt Q15116 25-167, biotinylated); assay: ELISA; antibody coated on plate, biotinylated antigen titrated, streptavidin-HRP
Description: The interaction of the unmodified and of conjugated antibodies their antigens were measured by ELISA assay.
For these PD-1 ELISAs, Corning high-binding half-area plates (Fisher Scientific, Reinach, Switzerland) were coated overnight at 4° C. with 25 μl of unmodified and of conjugated anti-PD1 antibodies at 5 μg/ml in PBS. Plates were then washed four times with 100 μl of PBS-0.02% Tween20. Plates surfaces were blocked with 25 μl of PBS-0.02% Tween20-1% BSA at 37° C. during 1 h. Plates were then washed four times with 100 μl of PBS-0.02% Tween20. […] Fifty microliters of TMB substrate reagent (#CL07, Merck, Buchs, Switzerland) were added to each well and incubated at 37° C. during 5 min. After 5 min at 37° C., Horseradish peroxidase reaction was stopped by adding 50 μl/well of 0.5M H₂SO₄ stop solution. ELISA signal was then measured at 450 nm on an EnSpire plate reader from Perkin Elmer (Schwerzenbach, Switzerland). ELISAs for other antibody/antigen pairs were performed using analogous methods.

[2] = target: T1, recombinant biotinylated human Fc gamma receptor I (FcγRI/CD64) (human, UniProt P12314 16-288, limits assumed, biotinylated); assay: AlphaLISA competition: test antibody titrated against biotinylated human FcγRI on donor beads; competitor: human IgG Fc on acceptor beads; signal normalized to %
T1 construct: also called FcgRI
Description: (§1) The interaction of the unmodified and of conjugated antibodies with human Fc gamma receptors I (FcγRI/CD64), with human Fc gamma receptors II (FcγRIIa/CD32), and with low affinity human Fc gamma receptors III FcγR3a/CD16 V158 were measured using the AlphaLISA® Human FcγR1/CD64 (AL3081C), FcγRIIa/CD32a 167H (AL3086C), and FcγRIII/CD16 176P/F158 (AL3471HV) binding Kits respectively (Perkin Elmer, Schwerzenbach, Switzerland).
(§2) After 90 min at 23° C. in the dark, AlphaLISA® signal was measured on an EnSpire plate reader (Excitation at 680 nm, Emission at 615 nm) from Perkin Elmer (Schwerzenbach, Switzerland).

[3] = target: T2, recombinant biotinylated human neonatal Fc receptor (FcRn) (human, UniProt P55899 24-297; P61769 21-119, limits assumed, biotinylated); assay: AlphaLISA competition at pH 6: test antibody titrated against biotinylated human FcRn on donor beads; competitor: human IgG on acceptor beads
T2 construct: also called human FcRn
Description: (§3) The interaction of the unmodified and of conjugated anti-PD1 antibodies with the human neonatal Fc receptor (FcRn) at pH 6 was measured using the AlphaLISA Human FcRn Binding Kit (AL3095C) from Perkin Elmer (Schwerzenbach, Switzerland).
(§4) After 90 min at 23° C. in the dark, AlphaLISA signal was measured on an EnSpire plate reader (Excitation at 680 nm, Emission at 615 nm) from Perkin Elmer (Schwerzenbach, Switzerland).

[4] = target: T1, recombinant biotinylated human Fc gamma …; assay: AlphaLISA competition; test molecule titrated against human IgG Fc acceptor beads for biotinylated FcγRI
Description: as §1, §2

[5] = target: T2, recombinant biotinylated human neonatal …; assay: AlphaLISA competition at pH 6; test molecule titrated against human IgG acceptor beads for biotinylated human FcRn
Description: as §3, §4

[6] = target: T3, recombinant biotinylated human Fc gamma receptor IIIa (FcγRIIIa/CD16) (human, UniProt P08637 17-208, limits assumed, biotinylated); assay: AlphaLISA competition; test molecule titrated against human IgG Fc acceptor beads for biotinylated FcγRIIIa
T3 construct: Allotype given inconsistently (V158 against 176P/F158); also called FcgRIIIa; FcγR3a
Description: as §1, §2

[7] = target: T4, recombinant biotinylated human Fc gamma receptor IIa (FcγRIIa/CD32a 167H) (human, UniProt P12318 36-218, limits assumed, biotinylated); assay: AlphaLISA competition: test antibody titrated against biotinylated human FcγRIIa; competitor: human IgG Fc on acceptor beads; signal normalized to %; panel 'FcγR2a/CD32a Binding Assay'
T4 construct: also called FcgRIIa
T4 sequence (looked up): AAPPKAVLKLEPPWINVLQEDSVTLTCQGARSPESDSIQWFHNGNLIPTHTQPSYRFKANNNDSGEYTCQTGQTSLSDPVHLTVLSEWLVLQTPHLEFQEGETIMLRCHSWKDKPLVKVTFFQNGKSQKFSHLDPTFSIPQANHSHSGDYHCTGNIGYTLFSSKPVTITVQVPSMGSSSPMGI
Description: as §1, §2

[8] = target: T3, recombinant biotinylated human Fc gamma …; assay: AlphaLISA competition: test antibody titrated against biotinylated human FcγRIIIa; competitor: human IgG Fc on acceptor beads; signal normalized to %; panel 'FcγR3a/CD16 Binding Assay'
Description: as §1, §2

[9] = target: T1, recombinant biotinylated human Fc gamma …; assay: AlphaLISA competition: test antibody titrated against biotinylated human FcγRI; competitor: human IgG Fc on acceptor beads; signal normalized to %; panel 'FcγR1/CD64 Binding Assay'
Description: as §1, §2

B1: CMP-105 (LZM-009) (antibody, V domains shown)
VH: QVQLVQSGAEVKKPGASVKVSCKASGYTFTSYYMYWVRQAPGQGLEWMGGVNPSNGGTNFNEKFKSRVTITADKSTSTAYMELSSLRSEDTAVYYCARRDYRYDMGFDYWGQGTTVTVSS
VL: EIVLTQSPATLSLSPGERATISCRASKGVSTSGYSYLHWYQQKPGQAPRLLIYLASYLESGVPARFSGSGSGTDFTLTISSLEPEDFATYYCQHSRELPLTFGTGTKVEIK
notes: Unconjugated parent anti-PD-1 antibody (DAR 0); also called Livzon PD1 AB
- Kd [1]: 0.035 nM

B2: CMP-028 (LZM-009 conjugated to CMP-003, DAR 1.9, K288) (antibody)
VH: QVQLVQSGAEVKKPGASVKVSCKASGYTFTSYYMYWVRQAPGQGLEWMGGVNPSNGGTNFNEKFKSRVTITADKSTSTAYMELSSLRSEDTAVYYCARRDYRYDMGFDYWGQGTTVTVSS
VL: EIVLTQSPATLSLSPGERATISCRASKGVSTSGYSYLHWYQQKPGQAPRLLIYLASYLESGVPARFSGSGSGTDFTLTISSLEPEDFATYYCQHSRELPLTFGTGTKVEIK
chain: APTSSSTKKTQLQLEHLLLDLQXILNGINNYKNPKLTRXLXYKFYXPKKATELKHLQCLEEELKPLEEVLXLAQSKNFHLRPRDLISNINVIVLELKGSETTFXCEYADETATIVEFLNRWITFSQSIISTLT
modifications: not fully specified; Nle at 23, 39, 46 and Hse at 41, 71, 104 (as in SEQ ID NO: 3); ~0.5 kDa PEG on Y45; 0.5 kDa PEG on F42Y whose azide end is joined to the DBCO linker of the antibody; the heavy chain carries a chemical linker to CMP-003 on Lys K288 (Eu numbering) of the Fc; DAR 1.9
- Kd [1]: 0.041 nM

B3: CMP-041 (LZM-009 conjugated to CMP-095 (IL-7), DAR 1, K248) (antibody)
VH: QVQLVQSGAEVKKPGASVKVSCKASGYTFTSYYMYWVRQAPGQGLEWMGGVNPSNGGTNFNEKFKSRVTITADKSTSTAYMELSSLRSEDTAVYYCARRDYRYDMGFDYWGQGTTVTVSS
VL: EIVLTQSPATLSLSPGERATISCRASKGVSTSGYSYLHWYQQKPGQAPRLLIYLASYLESGVPARFSGSGSGTDFTLTISSLEPEDFATYYCQHSRELPLTFGTGTKVEIK
chain: DCDIEGKDGKQYESVLXVSIDQLLDSXKEIGSNCLXNEFNFFKRHICDANKEGXFLFRAARKLRQFLKXNSTGDFXLHLLKVSEGTTILLNCTGQVKGRKPAALGEAQPTKSLXENKSLKEQKKLNDLCFLKRLLQEIKTCWNKILXGTKEH
modifications: not fully specified; Nle at 17, 27, 54, 69, 147 and Hse at 36, 76, 114 (as in SEQ ID NO: 187); N-terminal amine carries glutaryl-PEG9 whose azide end is joined to the DBCO linker of the antibody; the heavy chain carries a chemical linker to CMP-095 on Lys K248 (Eu numbering) of the Fc; DAR 1
notes: also called Livzon PD1:IL7wt
- Kd [1]: 0.035 nM

B4: CMP-016 (LZM-009 conjugated to CMP-003, DAR 1, K248) (antibody)
VH: QVQLVQSGAEVKKPGASVKVSCKASGYTFTSYYMYWVRQAPGQGLEWMGGVNPSNGGTNFNEKFKSRVTITADKSTSTAYMELSSLRSEDTAVYYCARRDYRYDMGFDYWGQGTTVTVSS
VL: EIVLTQSPATLSLSPGERATISCRASKGVSTSGYSYLHWYQQKPGQAPRLLIYLASYLESGVPARFSGSGSGTDFTLTISSLEPEDFATYYCQHSRELPLTFGTGTKVEIK
chain: APTSSSTKKTQLQLEHLLLDLQXILNGINNYKNPKLTRXLXYKFYXPKKATELKHLQCLEEELKPLEEVLXLAQSKNFHLRPRDLISNINVIVLELKGSETTFXCEYADETATIVEFLNRWITFSQSIISTLT
modifications: not fully specified; Nle at 23, 39, 46 and Hse at 41, 71, 104 (as in SEQ ID NO: 3); ~0.5 kDa PEG on Y45; 0.5 kDa PEG on F42Y whose azide end is joined to the DBCO linker of the antibody; the heavy chain carries a chemical linker to CMP-003 on Lys K248 (Eu numbering) of the Fc; DAR 1
- Kd [1]: 0.037 nM

B5: CMP-102 (LZM-009 conjugated to CMP-003, DAR 1, K288) (antibody)
VH: QVQLVQSGAEVKKPGASVKVSCKASGYTFTSYYMYWVRQAPGQGLEWMGGVNPSNGGTNFNEKFKSRVTITADKSTSTAYMELSSLRSEDTAVYYCARRDYRYDMGFDYWGQGTTVTVSS
VL: EIVLTQSPATLSLSPGERATISCRASKGVSTSGYSYLHWYQQKPGQAPRLLIYLASYLESGVPARFSGSGSGTDFTLTISSLEPEDFATYYCQHSRELPLTFGTGTKVEIK
chain: APTSSSTKKTQLQLEHLLLDLQXILNGINNYKNPKLTRXLXYKFYXPKKATELKHLQCLEEELKPLEEVLXLAQSKNFHLRPRDLISNINVIVLELKGSETTFXCEYADETATIVEFLNRWITFSQSIISTLT
modifications: not fully specified; Nle at 23, 39, 46 and Hse at 41, 71, 104 (as in SEQ ID NO: 3); ~0.5 kDa PEG on Y45; 0.5 kDa PEG on F42Y whose azide end is joined to the DBCO linker of the antibody; the heavy chain carries a chemical linker to CMP-003 on Lys K288 (Eu numbering) of the Fc; DAR 1
- Kd [1]: 0.027 nM

B6: CMP-004 (Pembrolizumab) (antibody, human IgG4 S228P, kappa)
heavy: not shown
light: EIVLTQSPATLSLSPGERATLSCRASKGVSTSGYSYLHWYQQKPGQAPRLLIYLASYLESGVPARFSGSGSGTDFTLTISSLEPEDFAVYYCQHSRDLPLTFGGGTKVEIKRTVAAPSVFIFPPSDEQLKSGTASVVCLLNNFYPREAKVQWKVDNALQSGNSQESVTEQDSKDSTYSLSSTLTLSKADYEKHKVYACEVTHQGLSSPVTKSFNRGEC
notes: Unconjugated parent anti-PD-1 antibody (DAR 0); also called Lambrolizumab
- IC50 (read off the curve) [2]: ~0.5 nM
- IC50 (read off the curve) [3]: ~10 nM
- Kd [4]: 0.488 nM
- Kd [5]: 7.31 nM
- Kd [6]: 289 nM

B7: CMP-033 (Durvalumab) (antibody, human IgG1, kappa)
heavy chain: EVQLVESGGGLVQPGGSLRLSCAASGFTFSRYWMSWVRQAPGKGLEWVANIKQDGSEKYYVDSVKGRFTISRDNAKNSLYLQMNSLRAEDTAVYYCAREGGWFGELAFDYWGQGTLVTVSSASTKGPSVFPLAPSSKSTSGGTAALGCLVKDYFPEPVTVSWNSGALTSGVHTFPAVLQSSGLYSLSSVVTVPSSSLGTQTYICNVNHKPSNTKVDKRVEPKSCDKTHTCPPCPAPEFEGGPSVFLFPPKPKDTLMISRTPEVTCVVVDVSHEDPEVKFNWYVDGVEVHNAKTKPREEQYNSTYRVVSVLTVLHQDWLNGKEYKCKVSNKALPASIEKTISKAKGQPREPQVYTLPPSREEMTKNQVSLTCLVKGFYPSDIAVEWESNGQPENNYKTTPPVLDSDGSFFLYSKLTVDKSRWQQGNVFSCSVMHEALHNHYTQKSLSLSPGK
light chain: EIVLTQSPGTLSLSPGERATLSCRASQRVSSSYLAWYQQKPGQAPRLLIYDASSRATGIPDRFSGSGSGTDFTLTISRLEPEDFAVYYCQQYGSLPWTFGQGTKVEIKRTVAAPSVFIFPPSDEQLKSGTASVVCLLNNFYPREAKVQWKVDNALQSGNSQESVTEQDSKDSTYSLSSTLTLSKADYEKHKVYACEVTHQGLSSPVTKSFNRGEC
notes: unconjugated parent anti-PD-L1 antibody; also called Imfinzi; MEDI-4736
- IC50 (read off the curve) [7]: ~400 nM
- IC50 (read off the curve) [8]: ~500 nM
- binding result [9]: binds
